The target in experiment [1] is T1, LINE-1 ORF2p (translation product of L1 ORF2), endogenous (human (endogenous in N2102Ep and …, UniProt O00370 1-1275)). In words: affinity purification with mass spectrometry.
Experiment [2] has as its target T1, LINE-1 ORF2p (translation product of L1 …). Kind of experiment: affinity purification with mass spectrometry. The source holds these as a separate data set.

Where two headings read alike, the source gives them in different places.

T1 sequence (O00370 whole entry): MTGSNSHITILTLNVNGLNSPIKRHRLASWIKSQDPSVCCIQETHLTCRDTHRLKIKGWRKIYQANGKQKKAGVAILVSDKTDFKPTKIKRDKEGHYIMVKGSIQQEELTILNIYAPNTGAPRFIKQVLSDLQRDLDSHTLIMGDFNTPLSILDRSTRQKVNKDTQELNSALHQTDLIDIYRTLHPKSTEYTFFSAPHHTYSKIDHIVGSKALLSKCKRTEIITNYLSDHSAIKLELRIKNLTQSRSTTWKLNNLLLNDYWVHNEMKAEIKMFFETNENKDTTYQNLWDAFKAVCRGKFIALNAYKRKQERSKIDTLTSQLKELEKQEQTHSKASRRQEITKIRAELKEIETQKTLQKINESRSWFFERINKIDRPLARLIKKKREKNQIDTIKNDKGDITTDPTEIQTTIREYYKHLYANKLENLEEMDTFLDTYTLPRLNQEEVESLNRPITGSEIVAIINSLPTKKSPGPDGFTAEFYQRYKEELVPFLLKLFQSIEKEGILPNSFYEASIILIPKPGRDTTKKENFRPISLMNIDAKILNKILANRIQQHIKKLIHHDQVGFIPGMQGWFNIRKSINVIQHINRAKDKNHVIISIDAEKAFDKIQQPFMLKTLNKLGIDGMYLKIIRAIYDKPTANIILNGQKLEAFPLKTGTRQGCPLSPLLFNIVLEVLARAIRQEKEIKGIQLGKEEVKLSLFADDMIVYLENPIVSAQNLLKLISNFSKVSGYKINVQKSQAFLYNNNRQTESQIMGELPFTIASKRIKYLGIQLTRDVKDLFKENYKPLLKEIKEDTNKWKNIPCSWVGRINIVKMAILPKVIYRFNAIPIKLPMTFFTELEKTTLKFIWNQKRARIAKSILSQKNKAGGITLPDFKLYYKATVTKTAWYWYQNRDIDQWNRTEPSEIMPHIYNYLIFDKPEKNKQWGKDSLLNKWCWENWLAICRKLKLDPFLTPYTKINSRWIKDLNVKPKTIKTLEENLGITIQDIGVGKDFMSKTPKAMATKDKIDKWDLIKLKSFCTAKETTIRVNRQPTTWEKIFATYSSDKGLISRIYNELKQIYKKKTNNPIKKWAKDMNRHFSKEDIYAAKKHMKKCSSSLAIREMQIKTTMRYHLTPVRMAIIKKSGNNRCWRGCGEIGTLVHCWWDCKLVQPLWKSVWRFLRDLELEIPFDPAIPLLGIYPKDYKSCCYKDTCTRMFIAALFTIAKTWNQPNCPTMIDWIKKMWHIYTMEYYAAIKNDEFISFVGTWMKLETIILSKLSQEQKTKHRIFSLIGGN

B1: LINE-1 ORF1p (translation product of L1 ORF1), endogenous (natural protein)
chain: MGKKQNRKTGNSKTQSASPPPKERSSSPATEQSWMENDFDELREEGFRRSNYSELREDIQTKGKEVENFEKNLEECITRITNTEKCLKELMELKTKARELREECRSLRSRCDQLEERVSAMEDEMNEMKREGKFREKRIKRNEQSLQEIWDYVKRPNLRLIGVPESDVENGTKLENTLQDIIQENFPNLARQANVQIQEIQRTPQRYSSRRATPRHIIVRFTKVEMKEKMLRAAREKGRVTLKGKPIRLTADLSAETLQARREWGPIFNILKEKNFQPRISYPAKLSFISEGEIKYFIDKQMLRDFVTTRPALKELLKEALNMERNNRYQPLQNHAKM
As for B1, the “ORF1p:ORF2p molar ratio in the affinity enriched fraction” value in experiment [1] was ~279 molar ratio (ORF1p per ORF2p); in experiment [2], ~184 molar ratio (ORF1p per ORF2p).

(Values after publication PMC11800616 (Mobile DNA, 2025).)
